In paper PMC6624373, “Lamin A molecular compression and sliding as mechanisms behind nucleoskeleton elasticity” (Nature Communications, 2019):
Positions count from the first letter of the chain named.

B1: lamin A R25G (natural protein, human, UniProt P02545 1-646, looked up)
chain: METPSQRRATRSGAQASSTPLSPTGITRLQEKEDLQELNDRLAVYIDRVRSLETENAGLRLRITESEEVVSREVSGIKAAYEAELGDARKTLDSVAKERARLQLELSKVREEFKELKARNTKKEGDLIAAQARLKDLEALLNSKEAALSTALSEKRTLEGELHDLRGQVAKLEAALGEAKKQLQDEMLRRVDAENRLQTMKEELDFQKNIYSEELRETKRRHETRLVEIDNGKQREFESRLADALQELRAQHEDQVEQYKKELEKTYSAKLDNARQSAERNSNLVGAAHEELQQSRIRIDSLSAQLSQLQKQLAAKEAKLRDLEDSLARERDTSRRLLAEKEREMAEMRARMQQQLDEYQELLDIKLALDMEIHAYRKLLEGEEERLRLSPSPTSQRSRGRASSHSSQTQGGGSVTKKRKLESTESRSSFSQHARTSGRVAVEEVDEEGKFVRLRNKSNEDQSMGNWQIKRQNGDDPLLTYRFPPKFTLKAGQVVTIWAAGAGATHSPPTDLVWKAQNTWGCGNSLRTALINSTGEEVAMRKLVRSVTVVEDDEDEDGDDLLHHHHGSHCSSSGDPAEYNLRSRTVLCGTCGQPADKASASGSGAQVGGPISSGSSASSVTVTRSYRSVGGSGGGSFGDNLVTRSY
notes: lamin A, human; pre-lamin A without its last 18 amino acids, as m1; mutation associated with EDMD/LGMD1B; source: E. coli (pET28b); purification of the mutants not separately stated
B2: lamin A E65G (natural protein, human, UniProt P02545 1-646, looked up)
chain: B1 chain with G25R, E65G
notes: as for B1
B3: lamin A E82K (natural protein, human, UniProt P02545 1-646, looked up)
chain: B1 chain with G25R, E82K
notes: lamin A, human; pre-lamin A without its last 18 amino acids, as m1; mutation associated with DCM-CD; source: E. coli (pET28b); purification of the mutants not separately stated
B4: lamin A R388E (natural protein, human, UniProt P02545 1-646, looked up)
chain: B1 chain with G25R, R388E
notes: lamin A, human; pre-lamin A without its last 18 amino acids, as m1; de novo mutant; source: E. coli (pET28b); purification of the mutants not separately stated
B5: lamin A R401E (natural protein, human, UniProt P02545 1-646, looked up)
chain: B1 chain with G25R, R401E
notes: as for B4
B6: lamin A R401C (natural protein, human, UniProt P02545 1-646, looked up)
chain: B1 chain with G25R, R401C
notes: lamin A, human; pre-lamin A without its last 18 amino acids, as m1; mutation associated with EDMD; source: E. coli (pET28b); purification of the mutants not separately stated
B7: lamin A E33G (natural protein, human, UniProt P02545 1-646, looked up)
chain: B1 chain with G25R, E33G
notes: as for B1
B8: lamin A R388C (natural protein, human, UniProt P02545 1-646, looked up)
chain: B1 chain with G25R, R388C
notes: lamin A, human; pre-lamin A without its last 18 amino acids, as m1; mutation associated with CMD; source: E. coli (pET28b); purification of the mutants not separately stated

Target: the molecule itself
Assay: rotary metal shadowing EM; in vitro assembly assay: after dialysis into 25 mM MES, 150 mM NaCl, 1 mM DTT, 1 mM EGTA pH 6.5, 30% glycerol; dimers scored as singular or incorporated into head-to-tail oligomers

Row | Protein | stoichiometry N
1 | B1 | 2
2 | B2 | 2
3 | B3 | 2
4 | B4 | 2
5 | B5 | 2
6 | B6 | 2
7 | B7 | 2
8 | B8 | 2
